According to PMC6181354, “Domain architecture of BAF250a reveals the ARID and ARM-repeat domains with implication in function and assembly of the BAF remodeling complex”:

Tests used:
BAF250a ARID WT = BAF250a ARID WT (UniProt O14497 968-1143); assay: ITC; 25 C; dH 1.51 kcal/mol; n 1.03; ITC: 50 mM NaH2PO4 pH 6, 0.025 mM EDTA, 25 C; 20 uM DNA in cell titrated with 200 uM protein; settings: protein: recombinant; tags: N-terminal 6xHis (pET28a); blunt; self-complementary palindrome, 2 copies; snap cooled on ice after heating
BAF250a ARID V1067G = BAF250a ARID V1067G (UniProt O14497 968-1143, V1067G); assay: ITC; 25 C; dH -0.69 kcal/mol; n 1.04; ITC: 50 mM NaH2PO4 pH 6, 0.025 mM EDTA, 25 C; 20 uM DNA in cell titrated with 200 uM protein; settings: protein: recombinant; tags: N-terminal 6xHis (pET28a); blunt; self-complementary palindrome, 2 copies; snap cooled on ice after heating
Sequence of BAF250a ARID V1067G (O14497 968-1143 V1067G): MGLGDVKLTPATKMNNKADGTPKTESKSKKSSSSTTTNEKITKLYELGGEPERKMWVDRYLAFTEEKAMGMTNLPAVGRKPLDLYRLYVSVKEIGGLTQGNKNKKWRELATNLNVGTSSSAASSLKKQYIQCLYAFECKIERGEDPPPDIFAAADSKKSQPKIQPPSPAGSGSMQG

Sequence of BAF250a ARID WT (O14497 968-1143): as the sequence (O14497 968-1143 V1067G) above, with G100V counted along it

B1: DD12 dsDNA (Dickerson dodecamer) (dsDNA)
DNA 1: CGCGAATTCGCG
DNA 2: CGCGAATTCGCG
- Kd (BAF250a ARID WT): 71.9 ± 37.7 nM
- Kd (BAF250a ARID V1067G): 694 ± 331 nM
